In patent publication US20260125454A1 (SHANGHAI JUNSHI BIOSCIENCES, published 2026):
Bridges are numbered along the chain shown (N, C = ends). Where no end group is shown, it is not given here. The star is where a group is joined. Biotin = O=C1N[C@H]2[C@H](CS[C@H]2CCCCC(=O)*)N1

Key:
hCGRP(1-13) [1] = biological target: T1, hCGRP(1-13) (human, disulfide 7-12); assay: BLI (Octet); hCGRP (1-13) against the fragments holding 8-19
T1 construct: also called polypeptide 1-13
T1 peptide: Biotin-GGGGGACDTATCVTHRLA
Description: (§1) The kinetic parameters of C245 Fab (Fab monomer fragments derived from antibody C245) binding to six synthetic human CGRP alpha polypeptide fragments (polypeptide 1-13, polypeptide 1-19, polypeptide 1-37, polypeptide 8-19, polypeptide 8-26, and polypeptide 13-24) were determined on an Octet RBD 96e system. Human CGRP synthetic polypeptide fragments were immobilized on the surfaces of SA bioprobes (Sartorius, Cat. No. 18-5019) at the following concentrations: 46.5 nM for hCGRP (1-13), 8.5 nM for CGRP (1-19), 15.5 nM for hCGRP (1-37), 8.5 nM for hCGRP (8-19), 15.5 nM for hCGRP (8-26), and 46.5 nM for hCGRP (13-24). The immobilized synthetic human CGRP polypeptide fragments were bound to 45 nM of C245 Fab and the binding dissociation curves were fitted using analytical software.

hCGRP(1-13) [2] = biological target: T1, hCGRP(1-13); assay: BLI (Octet), biotin-peptide on SA probe, 45 nM Fab
Description: as §1
(§2) The kinetic parameters of hu224 Fab (Fab monomer fragments derived from humanized antibody hu224) binding to four synthetic human CGRP alpha polypeptide fragments (polypeptide 1-13, polypeptide 1-19, polypeptide 1-37, and polypeptide 8-19) were determined on an Octet RBD 96e system. Human CGRP synthetic polypeptide fragments were immobilized on the surfaces of SA bioprobes (Sartorius, Cat. No. 18-5019) at the following concentrations: 8.5 nM for CGRP (1-19), 15.5 nM for hCGRP (1-37), 10 nM for hCGRP (8-19), and 15.5 nM for hCGRP (8-26). The immobilized synthetic human CGRP polypeptide fragments were bound to 45 nM of hu224 Fab and the binding dissociation curves were fitted using analytical software.

hCGRP(1-37) = biological target: T2, hCGRP(1-37) (human, N-terminal biotin; C-terminal phenylalanine amide (F-NH2); CYS residues at positions 7 and 12 theoretically form 1 intrachain disulfide bond); assay: BLI (Octet), biotin-peptide on SA probe, 45 nM Fab
T2 construct: also called polypeptide 1-37; full-length hCGRP (1-37) polypeptide
T2 peptide: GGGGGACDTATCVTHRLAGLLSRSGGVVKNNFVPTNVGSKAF
Description: as §1, §2

hCGRP(1-19) = biological target: T3, hCGRP(1-19) (human, N-terminal biotin; CYS residues at positions 7 and 12 theoretically form 1 intrachain disulfide bond); assay: BLI (Octet), biotin-peptide on SA probe, 45 nM Fab
T3 construct: also called polypeptide 1-19
T3 peptide: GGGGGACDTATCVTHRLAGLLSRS
Description: as §1, §2

hCGRP(8-26) = biological target: T4, hCGRP(8-26) (human, N-terminal biotin); assay: BLI (Octet), biotin-peptide on SA probe, 45 nM Fab
T4 construct: also called polypeptide 8-26
T4 peptide: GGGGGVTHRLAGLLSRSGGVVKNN
Description: as §1, §2

hCGRP(8-19) = biological target: T5, hCGRP(8-19) (human); assay: BLI (Octet), biotin-peptide on SA probe, 45 nM Fab
T5 construct: also called polypeptide 8-19
T5 peptide: Biotin-GGGGGVTHRLAGLLSRS
Description: as §1, §2

hCGRP(13-24) = biological target: T6, hCGRP(13-24) (human); assay: BLI (Octet), biotin-peptide on SA probe
T6 construct: also called polypeptide 13-24
T6 peptide: Biotin-GGGGGAGLLSRSGGVVK
Description: as §1

fold decrease in affinity (hCGRP(1-13) [1]): 100 fold
Kd (hCGRP(1-13) [2]): 24.4 nM
koff (hCGRP(1-13) [2]): 0.0172 s⁻¹
kon (hCGRP(1-13) [2]): 704000 M⁻¹ s⁻¹
Kd (hCGRP(1-37)): 0.249 nM
koff (hCGRP(1-37)): 6.95e-05 s⁻¹
kon (hCGRP(1-37)): 280000 M⁻¹ s⁻¹
Kd (hCGRP(1-19)): 0.0721 nM
koff (hCGRP(1-19)): 2.58e-05 s⁻¹
kon (hCGRP(1-19)): 357000 M⁻¹ s⁻¹
Kd (hCGRP(8-26)): 0.952 nM
koff (hCGRP(8-26)): 0.000316 s⁻¹
kon (hCGRP(8-26)): 332000 M⁻¹ s⁻¹
Kd (hCGRP(8-19)): 0.252 nM
koff (hCGRP(8-19)): 9.32e-05 s⁻¹
kon (hCGRP(8-19)): 360000 M⁻¹ s⁻¹
binding result (hCGRP(13-24)): no binding (tested: 45 nM)
B1: C245 Fab (Fab, V domains shown)
VH: EVQLQQSGPELVKPGASMKISCKASGYSFTGYTMNWVKQSHGNNLEWIGLINPYIGNTHYNQKFKDKATFTVDRSSSTAYMALLSLTSEDSAVYYCARELDSGFDYWGQGTTLTVSS
VL: DVLMTQTPLSLPVSLGDQASLSCRSSQNIVHSNGDTYLEWYLQKPGQSPKLLIYKVSNRFSGVPDRFSGSGSGTDFTLKISRVEAEDLGVYYCYQGSHVPWTFGGGTKLEIK
notes: Fab of chimeric C245; also called Fab monomer fragments derived from antibody C245
